Read-outs that look alike come from different tables or passages of the source.

The values that follow come from US20200317791A1 (Janssen / Centocor, published 2020).

In assay [1] the target is T1, A24_A*24:02 (human, UniProt A*24:02).
T1 construct: on LABScreen bead; also called HLA-A*24:02 (LABScreen class I bead)
T1 heavy chain: not shown
Kind of assay: LABScreen beads.

Assay [2] has as its target T2, HLA-Cw6/TRAT on K562-rhHLA-Cw6 cells loaded with TRAT peptide (human, UniProt P10321 25-366).
T2 MHC heavy: […]
T2 peptide: TRATKMQVI
In words: cell-based or functional assay.

In assay [3] the target is T1, A24_A*24:02. Kind of assay: LABScreen beads.
Assay [4] concerns the target T3, CW6W32 (rhHLA-Cw6/TRAT) (human).
T3 construct: also called CW6W32.009; rHLA-Cw6/TRAT
Kind of assay: SPR Biacore 8K, captured mAb; Kinetic fit not valid.

A further assay addresses CW6W54.001. The assay is described as above.
The target of assay [5] is CW6W55.ECO.PP.002. The assay is described as above.
The target of assay [6] is T4, rhHLA-B7 stably expressed on K562 cells (K562-rhHLA-B7) (human, UniProt P01889 25-362).
T4 construct: also called K562-rehHLA-B7
T4 sequence (P01889 25-362 limits assumed): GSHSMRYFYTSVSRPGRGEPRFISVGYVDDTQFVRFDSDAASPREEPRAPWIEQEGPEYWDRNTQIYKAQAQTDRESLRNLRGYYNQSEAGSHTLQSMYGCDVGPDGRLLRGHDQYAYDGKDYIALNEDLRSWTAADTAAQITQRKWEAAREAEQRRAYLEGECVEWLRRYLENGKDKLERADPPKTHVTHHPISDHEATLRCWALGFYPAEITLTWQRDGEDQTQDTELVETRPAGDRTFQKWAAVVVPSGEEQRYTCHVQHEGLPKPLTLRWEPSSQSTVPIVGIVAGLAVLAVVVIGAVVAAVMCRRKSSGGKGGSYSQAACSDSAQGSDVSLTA
In words: MSD cell binding.

Assay [7] deals with T5, rhHLA-Cw6 stably expressed on K562 cells (K562-rhHLA-Cw6) (human, UniProt P10321 25-366).
T5 construct: also called K562-HLA-Cw6
T5 MHC heavy: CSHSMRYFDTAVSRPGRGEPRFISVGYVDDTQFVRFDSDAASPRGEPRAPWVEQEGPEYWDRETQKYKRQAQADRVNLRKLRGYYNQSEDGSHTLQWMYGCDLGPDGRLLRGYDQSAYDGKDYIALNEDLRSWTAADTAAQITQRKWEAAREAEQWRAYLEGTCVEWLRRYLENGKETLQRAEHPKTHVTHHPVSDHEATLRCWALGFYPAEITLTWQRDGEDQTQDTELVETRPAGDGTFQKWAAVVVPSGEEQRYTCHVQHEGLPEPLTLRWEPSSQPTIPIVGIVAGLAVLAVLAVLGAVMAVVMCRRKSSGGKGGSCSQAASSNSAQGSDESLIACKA
In words: MSD cell binding.

The target in assay [8] is T6, CW6W3.ECO.PP.002/.003 (rhHLA-Cw6/ARF) (human).
T6 construct: also called rhHLA-Cw6/ARFN; rHLA-Cw6/ARFN
In words: SPR ProteOn XPR36, captured mAb; valid kinetic fit.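 Also: Anti-HLA-Cw6 mAbs captured at 100–200 RU, antigen flowed in PBST, 180 s association and 900 s dissociation, double-referenced sensorgrams globally fit to a 1:1 Langmuir model.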

The target in assay [9] is T7, CW6W36 (rhHLA-Cw6/ADAMTSL5) (human).
T7 construct: also called CW6W36.002; rHLA-Cw6/ADAMTSL5
Kind of assay: SPR ProteOn XPR36, captured mAb; valid kinetic fit.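 Also: Anti-HLA-Cw6 mAbs captured at 100–200 RU, antigen flowed in PBST, 180 s association and 900 s dissociation, double-referenced sensorgrams globally fit to a 1:1 Langmuir model.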

The target of assay [10] is T3, CW6W32 (rhHLA-Cw6/TRAT). In words: SPR ProteOn XPR36, captured mAb; valid kinetic fit.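 Also: Anti-HLA-Cw6 mAbs captured at 100–200 RU, antigen flowed in PBST, 180 s association and 900 s dissociation, double-referenced sensorgrams globally fit to a 1:1 Langmuir model.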
The next assay has as its target CW6W47.001. Kind of assay: SPR Biacore 8K, captured mAb; Acceptable fit.
In assay [11] the target is T7, CW6W36 (rhHLA-Cw6/ADAMTSL5). Kind of assay: SPR Biacore 8K, captured mAb; Acceptable fit. In general terms: SPR reads the build-up and loss of mass on a sensor chip optically.
The target of the next assay is CW6W53.001. In words: SPR Biacore 8K, captured mAb; Acceptable fit.
The target in another assay is CW6W51.001. Kind of assay: SPR Biacore 8K, captured mAb; Acceptable fit.
Another assay concerns the target CW6W56.ECO.PP.001. Kind of assay: SPR Biacore 8K, captured mAb; Acceptable fit.
A further assay deals with CW6W35.001. In words: SPR Biacore 8K, captured mAb; Acceptable fit.
Assay [12] deals with T4, rhHLA-B7 stably expressed on K562 cells …. Kind of assay: MSD cell binding. This is another data set of the same source.
The target of assay [13] is CW6W55.ECO.PP.002. In words: SPR Biacore 8K, captured mAb; Acceptable fit.
The target in assay [14] is T1, A24_A*24:02. Kind of assay: LABScreen beads.
Assay [15] deals with T1, A24_A*24:02. In words: LABScreen beads.

B1: CW6B237 (antibody, V domains shown)
VH: QVTLKESGPVLVKPTETLTLTCTVSGFSLSNARMGVSWIRQPPGKALEWLAHIFSHDEKFYSTFLKSRLTISKDTSKSQVVLMMTNMDPVDTATYYCARIILSSSGHDAFDIWGQGTMVTVSS
VL: AIQMTQSPSSLSASVGDRVTITCRASQDIRHNLGWYQQKPGKAPNLLIYAASSLQSGVPSRFSGSGSGTDFILTISSLQPEDFATFFCLQDYIYPLTFGGGTKVEIK
notes: also called CW6B237.001; CW6M237 (DNA ID)
B1: the binding result in the assay with A24_A*24:02 [1] is given as “no binding (tested: 10 µg/ml)”. Further, the “IC50 (read off the curve)” value in [2] was approximately 0.3 µg/mL.

B2: CW6B238 (antibody, V domains shown)
VH: QVTLKESGPVLVKPTETLTLTCTVSGFSLNNARMGVSWIRQPPGKALEWLAHMFSSDEKFYRTSLKSRLTISKDTSKSQVVLTMTNMDPVDTATYYCARISLYSSGHDTFDLWGQGTMVTVSS
VL: AIQMTQSPSSLSASVGDRVTITCRASQDIRNTLGWYQQKPGKAPNLLIYAASSLQSGVPSRFSGSGSGTDFTLTISSLQPEDFATYYCLQDYDYPLTFGGGTKVEIK
notes: also called CW6B238.001; CW6M238 (DNA ID)
B2: in the assay with A24_A*24:02 [3], the binding result is listed as “no binding (tested: 10 µg/ml)”.

B3: CW6B233 (antibody, V domains shown)
VH: QVQLQESGPGLVKPSETLSLTCTVSGNSIRSYYWSWIRQPAGKGLEWIGRIYISGNTNYNPSLKSRVTMSIDTSKNQFSLKLSSVTAADTAVYYCARLSGIDAFDIWGQGTMVTVSS
VL: DIQMTQSPSSLSASVGDRVTITCQASQDITNYLNWYQQKPGKAPKLLIYDASNLETGVPSRFSGSGSGTDFTFTISSLQPEDFATYYCQQYDNLPITFGQGTRLEIK
notes: also called CW6B233.001; CW6M233 (DNA ID)
By Kd is commonly meant the free concentration of one partner at which half of the binding sites on the other are occupied at equilibrium, for simple one-to-one binding. High values mean weaker binding, low ones tighter binding. As usually defined, the koff is the first-order rate constant of dissociation. A higher koff goes with fast dissociation. As a reminder, the kon is the rate constant with which the complex forms. A low value points to slower complex formation. With B3, the Kd in the assay with CW6W32 (rhHLA-Cw6/TRAT) [4] is 3.73 nM; with CW6W54.001 it was 0.798 nM; in the assay with CW6W55.ECO.PP.002 [5] it was 7.3 nM; in assay [8] it was 0.29 nM; in assay [9] it was 1 nM; in the assay with CW6W32 (rhHLA-Cw6/TRAT) [10] it was 1.55 nM. Further, the Kd with CW6W47.001 is 9.63 nM; in assay [11], 3.82 nM; with CW6W53.001, 2.09 nM; in the assay with CW6W51.001, 1.18 nM; with CW6W56.ECO.PP.001, 1.26 nM; with CW6W35.001, 3.59 nM. Also, the koff in the assay with CW6W32 (rhHLA-Cw6/TRAT) [4] worked out at 0.00203 s⁻¹; with CW6W54.001, 0.000484 s⁻¹; with CW6W55.ECO.PP.002 [5] it was 1.22 s⁻¹; in assay [8], 0.000293 s⁻¹; in assay [9] it was 0.00355 s⁻¹; in the assay with CW6W32 (rhHLA-Cw6/TRAT) [10], 0.00234 s⁻¹. Also, the koff in the assay with CW6W47.001 was 0.00801 s⁻¹; in assay [11], 0.00433 s⁻¹; in the assay with CW6W53.001 it was 0.00073 s⁻¹; with CW6W51.001 it was 0.000514 s⁻¹; in the assay with CW6W56.ECO.PP.001, 0.00107 s⁻¹; with CW6W35.001, 0.000758 s⁻¹. Also, the kon in the assay with CW6W32 (rhHLA-Cw6/TRAT) [4] amounted to 544000 M⁻¹ s⁻¹; with CW6W54.001, 607000 M⁻¹ s⁻¹; in the assay with CW6W55.ECO.PP.002 [5] it was 1.67e+08 M⁻¹ s⁻¹; in assay [8] it was 1.02e+06 M⁻¹ s⁻¹; in assay [9], 3.56e+06 M⁻¹ s⁻¹; with CW6W32 (rhHLA-Cw6/TRAT) [10], 1.51e+06 M⁻¹ s⁻¹. Besides, the kon in the assay with CW6W47.001 stood at 832000 M⁻¹ s⁻¹; in assay [11] it was 1.14e+06 M⁻¹ s⁻¹; with CW6W53.001, 350000 M⁻¹ s⁻¹; with CW6W51.001 it was 437000 M⁻¹ s⁻¹; with CW6W56.ECO.PP.001, 849000 M⁻¹ s⁻¹; with CW6W35.001 it was 211000 M⁻¹ s⁻¹. The “HLA-B7 Specific (K562-rhHLA-B7/K562 Parent binding signal)” value in assay [6] turned out to be 0.8 ratio. Also, the “HLA-Cw6 Selective (K562-rhHLA-Cw6 specific/K562-rhHLA-B7 specific)” value in assay [7] was determined as 44 ratio. Also, the “HLA-Cw6 Specific (K562-rhHLA-Cw6/K562 Parent binding signal)” value in assay [7] stood at 36 ratio. Moreover, in assay [12], the binding result is recorded as “no binding”.

B4: CW6B228 (antibody, V domains shown)
VH: QVQLQESGPGLVKPSETLSLTCTVSGNSIRSYYWSWIRQPAGKGLEWIGRIYISGNTNYNPSLKSRVTMSIDTSKNQFSLKLSSVTAADTAVYYCARLSGIDAFDIWGQGTMVTVSS
VL: DIQMTQSPSSLSASVGDRVTITCQASQDINNYLNWYQQKPGKAPKLLIYDASSLETGVPSRFSGSGSGTDFTFTISSLQPEDFATYYCQQYDDLPITFGQGTRLEIK
notes: also called CW6B228.001; CW6M228 (DNA ID)
In the case of B4, in assay [6], the “HLA-B7 Specific (K562-rhHLA-B7/K562 Parent binding signal)” value was 1 ratio. Besides, in [7], the “HLA-Cw6 Selective (K562-rhHLA-Cw6 specific/K562-rhHLA-B7 specific)” value was 78 ratio and the “HLA-Cw6 Specific (K562-rhHLA-Cw6/K562 Parent binding signal)” value was 75 ratio. Besides, in [8], the Kd turned out to be 0.04 nM, the koff came out at 0.000178 s⁻¹ and the kon stood at 4.89e+06 M⁻¹ s⁻¹. In assay [9], this molecule yielded a Kd of 0.05 nM, a koff of 0.000732 s⁻¹ and a kon of 1.52e+07 M⁻¹ s⁻¹. In the assay with CW6W32 (rhHLA-Cw6/TRAT) [10], this molecule had a Kd of 0.09 nM, a koff of 0.000534 s⁻¹ and a kon of 5.98e+06 M⁻¹ s⁻¹. In assay [12], the binding result is reported as “no binding”.

B5: CW6B230 (antibody, V domains shown)
VH: QVQLQESGPGLVKPSETLSLTCTVSGNSISNYYWSWIRQPAGKGLEWIGRIYITGNTNYNPSLKSRVTMSLDTSKNQFSLKLSSVTAADTAVYYCARLSGIDAFDIWGQGTMVTVSS
VL: DIQMTQSPSTLSASVGDRVTFTCQASQDITKYLNWYQQKPGKAPKLLIYDASNLETGVPSRFSGSGSGTDFTFTISSLQPEDFATYYCQQYDDLPITFGQGTRLEIK
notes: also called CW6B230.001; CW6M230 (DNA ID)
In the assay with CW6W54.001, B5 showed a Kd of 1.4 nM, a koff of 0.000655 s⁻¹ and a kon of 467000 M⁻¹ s⁻¹. Besides, in the assay with CW6W56.ECO.PP.001, the Kd stood at 2.07 nM, the koff stood at 0.00295 s⁻¹ and the kon stood at 1.42e+06 M⁻¹ s⁻¹. In addition, in the assay with CW6W55.ECO.PP.002 [13], the Kd was determined as 8.9 nM, the koff came to 0.00655 s⁻¹ and the kon is 737000 M⁻¹ s⁻¹. Also, the binding result in the assay with A24_A*24:02 [14] is on record as “no binding (tested: 10 µg/ml)”.

B6: CW6B229 (antibody, V domains shown)
VH: QVQLQESGPGLVKPSETLSLTCTVSGNSIRSYYWSWIRQPAGKGLEWIGRIYISGNTNYNPSLKSRVTMSIDTSKNQFSLKLSSVTAADTAVFYCARLSGIDAFDIWGQGTMVTVSS
VL: DIQMTQSPSSLSASVGDRVTITCQASQDISNYLNWYQQKPGKAPKLLIYDASNLETGVPSRFSGSGSGTDFTFTISSLQPEDFATYYCQQYDNLPITFGQGTRLEIK
notes: also called CW6B229.001; CW6M229 (DNA ID)
Regarding B6, the figures for the Kd with CW6W54.001, in the assay with CW6W55.ECO.PP.002 [5] and with CW6W56.ECO.PP.001 were 0.673 nM, 7.1 nM and 1.23 nM, respectively. The koff was 0.000465 s⁻¹ with CW6W54.001 and 0.00127 s⁻¹ in the assay with CW6W56.ECO.PP.001. For the same molecule, the kon with CW6W54.001 is 691000 M⁻¹ s⁻¹; with CW6W56.ECO.PP.001, 1.03e+06 M⁻¹ s⁻¹. The binding result with A24_A*24:02 [15] is given as “no binding (tested: 10 µg/ml)”.
